Data taken from PMC9482650, “Quantitative fragmentomics allow affinity mapping of interactomes” (Nature Communications, 2022).

T1: DFNB31_2, Q9P202
T1 sequence (Q9P202 274-371, limits assumed, looked up): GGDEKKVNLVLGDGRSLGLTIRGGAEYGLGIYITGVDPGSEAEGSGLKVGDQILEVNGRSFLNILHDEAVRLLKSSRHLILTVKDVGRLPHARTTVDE

T2: SNTA1, Q13424
T2 sequence (Q13424 82-180, limits assumed, looked up): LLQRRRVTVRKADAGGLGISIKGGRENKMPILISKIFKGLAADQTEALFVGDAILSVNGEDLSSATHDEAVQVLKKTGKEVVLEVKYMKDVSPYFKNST

T3: GRIP1_7, Q9Y3R0
T3 sequence (Q9Y3R0 999-1096, limits assumed, looked up): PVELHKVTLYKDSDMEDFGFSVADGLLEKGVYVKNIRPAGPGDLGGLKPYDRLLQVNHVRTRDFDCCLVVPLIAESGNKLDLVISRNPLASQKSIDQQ

T4: LNX2_3, Q8N448
T4 sequence (Q8N448 463-564, limits assumed, looked up): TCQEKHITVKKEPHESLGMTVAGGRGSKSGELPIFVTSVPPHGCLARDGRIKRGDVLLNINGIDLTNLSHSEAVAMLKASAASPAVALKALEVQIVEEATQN

T5: TX1BP3, O14907
T5 sequence (O14907 10-122, limits assumed, looked up): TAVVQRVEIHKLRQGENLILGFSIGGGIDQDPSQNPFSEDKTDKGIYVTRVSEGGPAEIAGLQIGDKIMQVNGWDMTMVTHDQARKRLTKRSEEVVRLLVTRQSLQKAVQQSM

T6: PDZD2_2, O15018
T6 sequence (O15018 329-429, limits assumed, looked up): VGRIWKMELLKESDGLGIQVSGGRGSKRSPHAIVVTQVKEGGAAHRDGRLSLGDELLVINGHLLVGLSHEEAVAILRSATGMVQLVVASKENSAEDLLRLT

T7: LIN7C, Q9NUP9
T7 sequence (Q9NUP9 88-185, limits assumed, looked up): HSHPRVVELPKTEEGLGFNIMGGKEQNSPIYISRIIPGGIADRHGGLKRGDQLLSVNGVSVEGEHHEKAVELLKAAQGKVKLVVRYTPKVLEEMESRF

T8: MPDZ_5, O75970
T8 sequence (O75970 695-796, limits assumed, looked up): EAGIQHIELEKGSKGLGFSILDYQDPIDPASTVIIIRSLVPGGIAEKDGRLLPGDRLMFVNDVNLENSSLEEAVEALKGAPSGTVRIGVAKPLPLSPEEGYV

T9: HTRA3, P83110
T9 sequence (P83110 354-453, limits assumed, looked up): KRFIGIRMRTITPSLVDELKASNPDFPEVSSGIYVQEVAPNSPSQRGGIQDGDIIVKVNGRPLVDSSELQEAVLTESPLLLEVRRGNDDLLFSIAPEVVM

T10: PARD3B_1, Q8TEW8
T10 sequence (Q8TEW8 196-299, limits assumed, looked up): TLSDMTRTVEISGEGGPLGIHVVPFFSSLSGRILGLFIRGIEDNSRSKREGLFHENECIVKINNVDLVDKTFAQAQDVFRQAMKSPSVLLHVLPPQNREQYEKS

T11: ARHGEF11, O15085
T11 sequence (O15085 42-136, limits assumed, looked up): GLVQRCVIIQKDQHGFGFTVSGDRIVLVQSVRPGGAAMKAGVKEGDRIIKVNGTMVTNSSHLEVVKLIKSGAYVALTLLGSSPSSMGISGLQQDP

T12: DLG3_1, Q92796
T12 sequence (Q92796 125-227, limits assumed, looked up): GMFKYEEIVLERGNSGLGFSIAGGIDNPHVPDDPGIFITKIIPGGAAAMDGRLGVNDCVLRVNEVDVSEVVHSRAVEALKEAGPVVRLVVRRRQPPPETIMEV


Tests used:
Test in all cases: holdup assay
Design in all cases: key: below the threshold = too weak to quantify, mostly under pKd 3.1 to 4
Conditions in all cases: plain residues with an end cap or a label only (N-terminal biotin on a linker: ado-ado)
GRID2IP_2, A4D2P6 = target: GRID2IP_2, A4D2P6
DFNB31_2, Q9P202 = target: T1, DFNB31_2, Q9P202
SNTA1, Q13424 = target: T2, SNTA1, Q13424
GRIP1_7, Q9Y3R0 = target: T3, GRIP1_7, Q9Y3R0
Inadl_1, Q8NI35 = target: Inadl_1, Q8NI35
LNX2_3, Q8N448 = target: T4, LNX2_3, Q8N448
TX1BP3, O14907 = target: T5, TX1BP3, O14907
PDZD2_2, O15018 = target: T6, PDZD2_2, O15018
SCRIB_2, Q14160 = target: SCRIB_2, Q14160
NHERF2_2, Q15599 = target: NHERF2_2, Q15599
LIN7C, Q9NUP9 = target: T7, LIN7C, Q9NUP9
MPDZ_5, O75970 = target: T8, MPDZ_5, O75970
HTRA3, P83110 = target: T9, HTRA3, P83110
PARD3B_1, Q8TEW8 = target: T10, PARD3B_1, Q8TEW8
LAP2, Q96RT1 = target: LAP2, Q96RT1
FRMPD2_2, Q68DX3 = target: FRMPD2_2, Q68DX3
ARHGEF11, O15085 = target: T11, ARHGEF11, O15085
GORASP2, Q9H8Y8 = target: GORASP2, Q9H8Y8
TJP1_2, Q07157 = target: TJP1_2, Q07157
Inadl_3, Q8NI35 = target: Inadl_3, Q8NI35
Inadl_5, Q8NI35 = target: Inadl_5, Q8NI35
DLG3_1, Q92796 = target: T12, DLG3_1, Q92796
GOPC, Q9HD26 = target: GOPC, Q9HD26
FRMPD4, Q14CM0 = target: FRMPD4, Q14CM0
Sequence of FRMPD4, Q14CM0 (Q14CM0 67-160): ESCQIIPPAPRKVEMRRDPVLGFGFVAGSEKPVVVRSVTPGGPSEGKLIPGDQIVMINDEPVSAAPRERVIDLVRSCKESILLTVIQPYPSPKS

Sequence of NHERF2_2, Q15599 (Q15599 142-238): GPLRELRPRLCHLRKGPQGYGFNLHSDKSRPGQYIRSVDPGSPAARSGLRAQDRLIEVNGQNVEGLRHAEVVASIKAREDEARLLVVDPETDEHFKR
Sequence of Inadl_5, Q8NI35 (Q8NI35 673-780): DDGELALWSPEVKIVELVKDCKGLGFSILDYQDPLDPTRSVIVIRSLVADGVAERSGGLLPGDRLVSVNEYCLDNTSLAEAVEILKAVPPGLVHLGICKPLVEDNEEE
Sequence of SCRIB_2, Q14160 (Q14160 857-960): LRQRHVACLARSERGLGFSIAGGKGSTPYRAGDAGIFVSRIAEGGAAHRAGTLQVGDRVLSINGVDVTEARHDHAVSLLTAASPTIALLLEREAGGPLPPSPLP
Sequence of FRMPD2_2, Q68DX3 (Q68DX3 944-1038): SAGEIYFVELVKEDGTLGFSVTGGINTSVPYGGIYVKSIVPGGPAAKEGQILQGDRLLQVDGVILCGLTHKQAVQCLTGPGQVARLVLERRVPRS
Sequence of Inadl_1, Q8NI35 (Q8NI35 113-229): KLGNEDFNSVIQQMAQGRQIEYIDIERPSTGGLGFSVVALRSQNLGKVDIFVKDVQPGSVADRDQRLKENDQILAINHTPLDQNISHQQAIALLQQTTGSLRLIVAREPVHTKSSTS
Sequence of LAP2, Q96RT1 (Q96RT1 other isoform, or with tags, fused parts or gaps): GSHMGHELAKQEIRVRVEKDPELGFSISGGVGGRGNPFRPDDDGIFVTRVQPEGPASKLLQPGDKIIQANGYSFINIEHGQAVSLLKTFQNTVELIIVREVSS
Sequence of GRID2IP_2, A4D2P6 (A4D2P6 272-370): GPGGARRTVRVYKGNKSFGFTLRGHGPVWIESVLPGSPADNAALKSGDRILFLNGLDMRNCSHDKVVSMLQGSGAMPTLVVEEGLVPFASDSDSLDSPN
Sequence of Inadl_3, Q8NI35 (Q8NI35 359-469): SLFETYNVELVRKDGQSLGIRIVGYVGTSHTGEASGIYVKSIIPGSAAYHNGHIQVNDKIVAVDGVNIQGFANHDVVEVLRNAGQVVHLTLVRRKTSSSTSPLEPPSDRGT
Sequence of TJP1_2, Q07157 (Q07157 181-274): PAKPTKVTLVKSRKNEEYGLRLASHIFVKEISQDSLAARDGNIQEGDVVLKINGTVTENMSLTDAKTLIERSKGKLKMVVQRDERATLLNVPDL

Binder	pKd (GRID2IP_2, A4D2P6)	pKd (DFNB31_2, Q9P202)	pKd (SNTA1, Q13424)	pKd (GRIP1_7, Q9Y3R0)	pKd (Inadl_1, Q8NI35)	pKd (LNX2_3, Q8N448)	pKd (TX1BP3, O14907)	pKd (PDZD2_2, O15018)	pKd (SCRIB_2, Q14160)	pKd (NHERF2_2, Q15599)	pKd (LIN7C, Q9NUP9)	pKd (MPDZ_5, O75970)	pKd (HTRA3, P83110)	pKd (PARD3B_1, Q8TEW8)	pKd (LAP2, Q96RT1)	pKd (FRMPD2_2, Q68DX3)	pKd (ARHGEF11, O15085)	pKd (GORASP2, Q9H8Y8)	pKd (TJP1_2, Q07157)	pKd (Inadl_3, Q8NI35)	other results
QRYPGNQTTC [CCL24, O00175]	4.08	below the threshold	below the threshold	below the threshold	below the threshold	below the threshold	below the threshold	below the threshold	below the threshold	below the threshold	below the threshold	below the threshold	3.74	below the threshold	below the threshold	below the threshold	below the threshold	below the threshold	below the threshold	below the threshold	pKd (Inadl_5, Q8NI35): below the threshold; pKd (DLG3_1, Q92796): below the threshold; pKd (GOPC, Q9HD26): below the threshold; pKd (FRMPD4, Q14CM0): below the threshold
HLSTRQGTCV [ATRNL1, Q5VV63]	4.05	below the threshold	3.67	below the threshold	below the threshold	below the threshold	below the threshold	4.99	4.02	below the threshold	below the threshold	3.66	4.45	below the threshold	3.94	below the threshold	4.02	4.15	below the threshold	below the threshold	pKd (Inadl_5, Q8NI35): 4.04; pKd (DLG3_1, Q92796): 3.84; pKd (GOPC, Q9HD26): 3.76; pKd (FRMPD4, Q14CM0): 3.51
HYPASPDSWV [CTNND2, Q9UQB3]	below the threshold	below the threshold	4.17	3.75	below the threshold	below the threshold	5.15	5.99	4.81	3.84	below the threshold	below the threshold	5.66	3.52	5.58	4.54	3.68	4.51	4.19	below the threshold	pKd (Inadl_5, Q8NI35): 3.64; pKd (DLG3_1, Q92796): 3.99; pKd (GOPC, Q9HD26): below the threshold; pKd (FRMPD4, Q14CM0): 3.76

Second part, led by results:

pKd (GRID2IP_2, A4D2P6)	pKd (DFNB31_2, Q9P202)	pKd (SNTA1, Q13424)	pKd (GRIP1_7, Q9Y3R0)	pKd (Inadl_1, Q8NI35)	pKd (LNX2_3, Q8N448)	pKd (TX1BP3, O14907)	pKd (PDZD2_2, O15018)	pKd (SCRIB_2, Q14160)	pKd (NHERF2_2, Q15599)	pKd (LIN7C, Q9NUP9)	pKd (MPDZ_5, O75970)	pKd (HTRA3, P83110)	pKd (PARD3B_1, Q8TEW8)	pKd (LAP2, Q96RT1)	pKd (FRMPD2_2, Q68DX3)	pKd (ARHGEF11, O15085)	pKd (GORASP2, Q9H8Y8)	pKd (TJP1_2, Q07157)	pKd (Inadl_3, Q8NI35)	Binder	other results
4.11	below the threshold	4.09	below the threshold	below the threshold	below the threshold	below the threshold	below the threshold	below the threshold	5.14	below the threshold	below the threshold	below the threshold	4.43	below the threshold	below the threshold	3.81	below the threshold	below the threshold	4.7	LLQEEWETVM [PTH1R, Q03431]	pKd (Inadl_5, Q8NI35): below the threshold; pKd (DLG3_1, Q92796): below the threshold; pKd (GOPC, Q9HD26): 3.85; pKd (FRMPD4, Q14CM0): 4.12
3.84	below the threshold	below the threshold	below the threshold	below the threshold	below the threshold	3.84	3.69	below the threshold	4.44	below the threshold	below the threshold	below the threshold	3.72	below the threshold	below the threshold	3.75	below the threshold	below the threshold	below the threshold	SSSVNVSSNL [CXCR1, P25024]	pKd (Inadl_5, Q8NI35): below the threshold; pKd (DLG3_1, Q92796): below the threshold; pKd (GOPC, Q9HD26): below the threshold; pKd (FRMPD4, Q14CM0): 3.57
below the threshold	below the threshold	below the threshold	3.56	below the threshold	below the threshold	3.77	4.57	below the threshold	below the threshold	below the threshold	below the threshold	4.49	4.78	3.67	below the threshold	4.18	4.77	below the threshold	4.9	VCMGDHWFDV [PRKN, O60260]	pKd (Inadl_5, Q8NI35): below the threshold; pKd (DLG3_1, Q92796): below the threshold; pKd (GOPC, Q9HD26): below the threshold; pKd (FRMPD4, Q14CM0): 3.86
